Source: US20230357838

Experiments:
[1] = system: T1, HcDa01
T1 sequence: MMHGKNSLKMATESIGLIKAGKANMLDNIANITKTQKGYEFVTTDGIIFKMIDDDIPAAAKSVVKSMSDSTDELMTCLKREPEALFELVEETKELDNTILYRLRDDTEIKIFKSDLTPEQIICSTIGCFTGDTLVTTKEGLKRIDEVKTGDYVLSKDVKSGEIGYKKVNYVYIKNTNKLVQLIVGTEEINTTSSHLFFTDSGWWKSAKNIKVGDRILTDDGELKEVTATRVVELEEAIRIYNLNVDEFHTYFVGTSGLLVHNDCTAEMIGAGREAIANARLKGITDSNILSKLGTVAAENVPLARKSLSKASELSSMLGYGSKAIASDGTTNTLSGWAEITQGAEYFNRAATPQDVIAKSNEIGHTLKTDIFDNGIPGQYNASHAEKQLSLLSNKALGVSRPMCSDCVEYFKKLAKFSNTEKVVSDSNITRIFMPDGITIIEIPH

[2] = system: d22_PeDa01 (Pseudomonas entomophila)
[3] = system: T2, LbDa02; settings: NGS assay; Table 1 prints SEQ 19 for this name
T2 sequence: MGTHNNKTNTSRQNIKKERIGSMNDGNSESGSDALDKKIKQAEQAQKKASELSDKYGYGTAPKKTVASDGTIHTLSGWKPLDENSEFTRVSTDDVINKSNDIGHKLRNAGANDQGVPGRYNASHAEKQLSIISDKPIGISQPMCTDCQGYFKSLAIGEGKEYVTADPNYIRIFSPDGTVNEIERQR

[4] = system: T3, Sso7d_LSGLSDDKLKEI_AcDa01; settings: CG 0.99, CH 0.17
T3 sequence: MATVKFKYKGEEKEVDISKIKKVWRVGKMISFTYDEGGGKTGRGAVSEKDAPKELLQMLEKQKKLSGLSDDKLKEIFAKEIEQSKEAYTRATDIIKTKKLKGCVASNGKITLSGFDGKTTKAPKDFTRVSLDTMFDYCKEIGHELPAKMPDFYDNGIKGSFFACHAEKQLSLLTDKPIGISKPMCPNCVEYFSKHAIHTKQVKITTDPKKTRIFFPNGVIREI

[5] = biological target: DddA (UniProt P0DUH5)
[6] = system: T4, Sso7d_GGGVTS_AcDa01; settings: CG 0.79, CH 0.03
T4 sequence: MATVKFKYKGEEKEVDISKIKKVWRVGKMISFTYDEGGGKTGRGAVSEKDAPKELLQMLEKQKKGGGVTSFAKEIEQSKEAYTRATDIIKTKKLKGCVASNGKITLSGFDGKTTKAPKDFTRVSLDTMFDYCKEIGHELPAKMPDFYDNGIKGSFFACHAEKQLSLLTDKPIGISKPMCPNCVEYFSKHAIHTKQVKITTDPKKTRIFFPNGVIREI

[7] = system: T5, Sso7d_VTAGVGEAG_MGYPDa20
T5 sequence: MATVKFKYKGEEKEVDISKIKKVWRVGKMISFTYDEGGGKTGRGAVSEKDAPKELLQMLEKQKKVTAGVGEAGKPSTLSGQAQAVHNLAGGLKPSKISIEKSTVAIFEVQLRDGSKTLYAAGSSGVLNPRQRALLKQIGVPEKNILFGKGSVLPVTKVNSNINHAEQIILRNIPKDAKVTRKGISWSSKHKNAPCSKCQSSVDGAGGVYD

[8] = system: T6, Sso7d_RhDa01_extN10
T6 sequence: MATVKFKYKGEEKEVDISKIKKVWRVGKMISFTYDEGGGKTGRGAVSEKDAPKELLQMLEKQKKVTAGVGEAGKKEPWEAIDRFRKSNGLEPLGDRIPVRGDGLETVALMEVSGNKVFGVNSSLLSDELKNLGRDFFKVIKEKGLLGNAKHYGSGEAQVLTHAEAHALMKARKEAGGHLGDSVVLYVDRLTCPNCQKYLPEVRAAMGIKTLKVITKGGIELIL

[9] = system: T7, RhDa01; settings: CG 0.23, CH 0.00
T7 sequence: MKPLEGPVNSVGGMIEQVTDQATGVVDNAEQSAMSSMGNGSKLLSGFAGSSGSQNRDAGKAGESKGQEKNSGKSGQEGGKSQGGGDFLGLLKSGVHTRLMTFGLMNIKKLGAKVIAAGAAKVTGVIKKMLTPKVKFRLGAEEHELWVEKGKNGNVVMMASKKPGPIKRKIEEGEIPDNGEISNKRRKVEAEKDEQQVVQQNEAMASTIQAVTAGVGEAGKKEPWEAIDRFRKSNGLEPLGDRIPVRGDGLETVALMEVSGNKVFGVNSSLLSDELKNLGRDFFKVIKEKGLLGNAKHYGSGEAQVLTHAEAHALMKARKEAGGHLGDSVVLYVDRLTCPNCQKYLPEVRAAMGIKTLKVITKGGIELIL

[10] = system: T8, RhDa01_extN10; settings: CG 0.32, CH 0.00
T8 sequence: T7 sequence

[11] = system: SsDa01
[12] = system: T9, MGYPDa16 (unidentified)
T9 sequence: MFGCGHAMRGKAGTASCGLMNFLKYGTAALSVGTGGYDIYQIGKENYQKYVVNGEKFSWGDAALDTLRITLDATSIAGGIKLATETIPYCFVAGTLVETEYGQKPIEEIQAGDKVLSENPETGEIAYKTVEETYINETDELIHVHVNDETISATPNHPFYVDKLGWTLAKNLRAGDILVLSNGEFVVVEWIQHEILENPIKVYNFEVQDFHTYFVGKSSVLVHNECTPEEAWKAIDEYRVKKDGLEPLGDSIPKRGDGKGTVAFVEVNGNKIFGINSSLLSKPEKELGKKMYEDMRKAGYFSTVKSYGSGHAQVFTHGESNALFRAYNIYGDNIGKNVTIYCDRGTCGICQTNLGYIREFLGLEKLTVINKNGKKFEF

[13] = system: T10, chimera_10
T10 sequence: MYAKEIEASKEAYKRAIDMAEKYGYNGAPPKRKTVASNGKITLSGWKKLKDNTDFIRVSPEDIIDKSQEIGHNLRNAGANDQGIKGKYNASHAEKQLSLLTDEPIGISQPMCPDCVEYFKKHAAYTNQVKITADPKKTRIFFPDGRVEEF

[14] = system: T11, LbsDa01 (Simiaoa sunii)
T11 sequence: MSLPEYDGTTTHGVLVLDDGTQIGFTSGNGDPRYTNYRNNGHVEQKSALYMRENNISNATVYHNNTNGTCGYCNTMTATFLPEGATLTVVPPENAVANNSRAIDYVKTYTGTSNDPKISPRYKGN

[15] = system: MmgDa02; settings: CG 0.446, CH 0.002

With “unmodified dsDNA (E. coli C2566 genomic)” the activity (fraction deaminated) [1] was 0, the activity (fraction deaminated) [2] was 0.79 and the activity (fraction deaminated) [3] was 1. For the same substance, the activity (fraction deaminated) [4] was 0.41, the activity (fraction deaminated) [5] was 0.27 and the activity (fraction deaminated) [6] was 0.26. For the same substance, the activity (fraction deaminated) [7] was 0.72, the activity (fraction deaminated) [8] was 0.93 and the activity (fraction deaminated) [9] was 0.07. The activity (fraction deaminated) [10] was 0.1, the activity (fraction deaminated) [11] was 0 and the activity (fraction deaminated) [12] was 0.78. It also gave an activity (fraction deaminated) [13] of 0.95, an activity (fraction deaminated) [14] of 0.889 and an activity (fraction deaminated) [15] of 0.133.
